Assay results: paper PMC13379313

Tests used:
[1] = biological target: TW2 (TrpR-Geminin coiled-coil-SpyTag-Geminin coiled-coil-MetJ) (UniProt P0A881); experiment: mass photometry; TW1, TW2 or assembled TW at a final concentration of 10 nM on the slide; 25 mM HEPES pH 7.4, 200 mM KCl, 5 mM MgCl2, 0.2 mM EDTA
[2] = biological target: TW1 (DtxR-Geminin coiled-coil-SpyCatcher) (UniProt P0DJL7); experiment: as above

| stoichiometry N [1] | Substance | stoichiometry N [2] |
| --- | --- | --- |
| 2 | TW2 (TrpR-Geminin coiled-coil-SpyTag-Geminin coiled-coil-MetJ) (from UniProt P0A881 2-10; O75496 110-145; O75496 110-145; P0A8U6 2-105) | – |
| – | TW1 (DtxR-Geminin coiled-coil-SpyCatcher) (from UniProt P0DJL7 2-121; O75496 110-145) | 2 |
